This is an account of results in paper PMC8390553, “The DNA-binding protein CST associates with the cohesin complex and promotes chromosome cohesion” (The Journal of Biological Chemistry, 2021).

This assay concerns the target T1, STN1, endogenous (HeLa) (human (endogenous in HeLa), UniProt Q9H668 1-368).
T1 construct: STN1 (OBFC1), subunit of the CST complex, endogenous; also called OBFC1; source: endogenous, in fixed HeLa 1.2.11 cells
T1 sequence (looked up): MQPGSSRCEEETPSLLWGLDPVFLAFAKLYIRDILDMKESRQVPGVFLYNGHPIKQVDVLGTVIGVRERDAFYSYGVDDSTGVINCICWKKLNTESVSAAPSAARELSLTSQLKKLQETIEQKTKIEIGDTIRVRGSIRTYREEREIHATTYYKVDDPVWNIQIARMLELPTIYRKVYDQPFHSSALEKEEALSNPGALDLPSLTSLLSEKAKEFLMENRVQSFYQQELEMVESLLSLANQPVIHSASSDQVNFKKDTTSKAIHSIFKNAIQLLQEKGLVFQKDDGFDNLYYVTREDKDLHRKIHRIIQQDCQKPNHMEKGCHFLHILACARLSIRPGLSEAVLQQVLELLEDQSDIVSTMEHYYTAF
As to the kind of experiment: proximity ligation; fixed HeLa 1.2.11 cells, Duolink PLA kit, antibodies to the endogenous proteins (mouse α-STN1 with rabbit α-SMC3, α-PolA1 or α-MCM7); untreated cells, and for STN1 with SMC3 also after HU (2 mM, 2 h), APH (1 μM, 2 h) or CPT (1 μM, 1 h). To be noted: partners not purified.

B1: SMC3, endogenous (HeLa) (natural protein, human (endogenous in HeLa), UniProt Q9UQE7 1-1217, looked up)
chain: MYIKQVIIQGFRSYRDQTIVDPFSSKHNVIVGRNGSGKSNFFYAIQFVLSDEFSHLRPEQRLALLHEGTGPRVISAFVEIIFDNSDNRLPIDKEEVSLRRVIGAKKDQYFLDKKMVTKNDVMNLLESAGFSRSNPYYIVKQGKINQMATAPDSQRLKLLREVAGTRVYDERKEESISLMKETEGKREKINELLKYIEERLHTLEEEKEELAQYQKWDKMRRALEYTIYNQELNETRAKLDELSAKRETSGEKSRQLRDAQQDARDKMEDIERQVRELKTKISAMKEEKEQLSAERQEQIKQRTKLELKAKDLQDELAGNSEQRKRLLKERQKLLEKIEEKQKELAETEPKFNSVKEKEERGIARLAQATQERTDLYAKQGRGSQFTSKEERDKWIKKELKSLDQAINDKKRQIAAIHKDLEDTEANKEKNLEQYNKLDQDLNEVKARVEELDRKYYEVKNKKDELQSERNYLWREENAEQQALAAKREDLEKKQQLLRAATGKAILNGIDSINKVLDHFRRKGINQHVQNGYHGIVMNNFECEPAFYTCVEVTAGNRLFYHIVDSDEVSTKILMEFNKMNLPGEVTFLPLNKLDVRDTAYPETNDAIPMISKLRYNPRFDKAFKHVFGKTLICRSMEVSTQLARAFTMDCITLEGDQVSHRGALTGGYYDTRKSRLELQKDVRKAEEELGELEAKLNENLRRNIERINNEIDQLMNQMQQIETQQRKFKASRDSILSEMKMLKEKRQQSEKTFMPKQRSLQSLEASLHAMESTRESLKAELGTDLLSQLSLEDQKRVDALNDEIRQLQQENRQLLNERIKLEGIITRVETYLNENLRKRLDQVEQELNELRETEGGTVLTATTSELEAINKRVKDTMARSEDLDNSIDKTEAGIKELQKSMERWKNMEKEHMDAINHDTKELEKMTNRQGMLLKKKEECMKKIRELGSLPQEAFEKYQTLSLKQLFRKLEQCNTELKKYSHVNKKALDQFVNFSEQKEKLIKRQEELDRGYKSIMELMNVLELRKYEAIQLTFKQVSKNFSEVFQKLVPGGKATLVMKKGDVEGSQSQDEGEGSGESERGSGSQSSVPSVDQFTGVGIRVSFTGKQGEMREMQQLSGGQKSLVALALIFAIQKCDPAPFYLFDEIDQALDAQHRKAVSDMIMELAVHAQFITTTFRPELLESADKFYGVKFRNKVSHIDVITAEMAKDFVEDDTTHG
notes: SMC3, core subunit of the cohesin complex, endogenous; also called cohesin subunit; source: endogenous, in fixed HeLa 1.2.11 cells
Regarding B1, the “PLA foci per cell (average)” value was approximately 6 foci per cell and the “fold increase in PLA foci after HU, APH or CPT against untreated cells” value was approximately 2 fold.

B2: PolA1, subunit of DNA polymerase α-primase, endogenous (HeLa) (natural protein, human (endogenous in HeLa), UniProt P09884 1-1462, looked up)
chain: MAPVHGDDSLSDSGSFVSSRARREKKSKKGRQEALERLKKAKAGEKYKYEVEDFTGVYEEVDEEQYSKLVQARQDDDWIVDDDGIGYVEDGREIFDDDLEDDALDADEKGKDGKARNKDKRNVKKLAVTKPNNIKSMFIACAGKKTADKAVDLSKDGLLGDILQDLNTETPQITPPPVMILKKKRSIGASPNPFSVHTATAVPSGKIASPVSRKEPPLTPVPLKRAEFAGDDVQVESTEEEQESGAMEFEDGDFDEPMEVEEVDLEPMAAKAWDKESEPAEEVKQEADSGKGTVSYLGSFLPDVSCWDIDQEGDSSFSVQEVQVDSSHLPLVKGADEEQVFHFYWLDAYEDQYNQPGVVFLFGKVWIESAETHVSCCVMVKNIERTLYFLPREMKIDLNTGKETGTPISMKDVYEEFDEKIATKYKIMKFKSKPVEKNYAFEIPDVPEKSEYLEVKYSAEMPQLPQDLKGETFSHVFGTNTSSLELFLMNRKIKGPCWLEVKSPQLLNQPVSWCKVEAMALKPDLVNVIKDVSPPPLVVMAFSMKTMQNAKNHQNEIIAMAALVHHSFALDKAAPKPPFQSHFCVVSKPKDCIFPYAFKEVIEKKNVKVEVAATERTLLGFFLAKVHKIDPDIIVGHNIYGFELEVLLQRINVCKAPHWSKIGRLKRSNMPKLGGRSGFGERNATCGRMICDVEISAKELIRCKSYHLSELVQQILKTERVVIPMENIQNMYSESSQLLYLLEHTWKDAKFILQIMCELNVLPLALQITNIAGNIMSRTLMGGRSERNEFLLLHAFYENNYIVPDKQIFRKPQQKLGDEDEEIDGDTNKYKKGRKKAAYAGGLVLDPKVGFYDKFILLLDFNSLYPSIIQEFNICFTTVQRVASEAQKVTEDGEQEQIPELPDPSLEMGILPREIRKLVERRKQVKQLMKQQDLNPDLILQYDIRQKALKLTANSMYGCLGFSYSRFYAKPLAALVTYKGREILMHTKEMVQKMNLEVIYGDTDSIMINTNSTNLEEVFKLGNKVKSEVNKLYKLLEIDIDGVFKSLLLLKKKKYAALVVEPTSDGNYVTKQELKGLDIVRRDWCDLAKDTGNFVIGQILSDQSRDTIVENIQKRLIEIGENVLNGSVPVSQFEINKALTKDPQDYPDKKSLPHVHVALWINSQGGRKVKAGDTVSYVICQDGSNLTASQRAYAPEQLQKQDNLTIDTQYYLAQQIHPVVARICEPIDGIDAVLIATWLGLDPTQFRVHHYHKDEENDALLGGPAQLTDEEKYRDCERFKCPCPTCGTENIYDNVFDGSGTDMEPSLYRCSNIDCKASPLTFTVQLSNKLIMDIRRFIKKYYDGWLICEEPTCRNRTRHLPLQFSRTGPLCPACMKATLQPEYSDKSLYTQLCFYRYIFDAECALEKLTTDHEKDKLKKQFFTPKVLQDYRKLKNTAEQFLSRSGYSEVNLSKLFAGCAVKS
notes: PolA1, subunit of DNA polymerase α-primase, endogenous; the subunit to which the PLA antibody was directed; The results name the partner as the complex DNA polymerase α-primase; the antibody of the PLA was against PolA1; source: endogenous, in fixed HeLa 1.2.11 cells
On to B2, for which the “PLA foci per cell (average)” value is 2.5 foci per cell.
